Results as given in paper doi:10.1101/2025.05.02.651952 (bioRxiv, 2025).

How the values were obtained:
Ssa1-WT = Ssa1-WT (yeast, UniProt P10591 1-642); assay: ELISA
[1] = target: firefly luciferase (denatured) (firefly, UniProt P08659 1-550 = luciferase); assay: ELISA
Sequence of firefly luciferase (denatured) (P08659 whole entry): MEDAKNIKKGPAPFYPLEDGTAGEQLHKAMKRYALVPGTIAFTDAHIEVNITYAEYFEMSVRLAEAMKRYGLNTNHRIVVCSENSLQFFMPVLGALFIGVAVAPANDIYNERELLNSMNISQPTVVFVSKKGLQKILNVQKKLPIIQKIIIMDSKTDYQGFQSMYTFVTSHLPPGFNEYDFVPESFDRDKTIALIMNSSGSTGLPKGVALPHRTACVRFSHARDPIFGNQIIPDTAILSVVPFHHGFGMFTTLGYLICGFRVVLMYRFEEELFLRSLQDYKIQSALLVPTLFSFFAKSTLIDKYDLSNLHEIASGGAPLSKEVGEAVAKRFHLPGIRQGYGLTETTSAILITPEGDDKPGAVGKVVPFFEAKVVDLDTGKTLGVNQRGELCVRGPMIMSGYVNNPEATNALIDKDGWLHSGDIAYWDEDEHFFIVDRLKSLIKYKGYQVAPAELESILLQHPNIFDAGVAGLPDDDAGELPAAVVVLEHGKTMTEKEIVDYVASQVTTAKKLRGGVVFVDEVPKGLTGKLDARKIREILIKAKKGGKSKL

Sequence of Ssa1-WT (P10591 whole entry): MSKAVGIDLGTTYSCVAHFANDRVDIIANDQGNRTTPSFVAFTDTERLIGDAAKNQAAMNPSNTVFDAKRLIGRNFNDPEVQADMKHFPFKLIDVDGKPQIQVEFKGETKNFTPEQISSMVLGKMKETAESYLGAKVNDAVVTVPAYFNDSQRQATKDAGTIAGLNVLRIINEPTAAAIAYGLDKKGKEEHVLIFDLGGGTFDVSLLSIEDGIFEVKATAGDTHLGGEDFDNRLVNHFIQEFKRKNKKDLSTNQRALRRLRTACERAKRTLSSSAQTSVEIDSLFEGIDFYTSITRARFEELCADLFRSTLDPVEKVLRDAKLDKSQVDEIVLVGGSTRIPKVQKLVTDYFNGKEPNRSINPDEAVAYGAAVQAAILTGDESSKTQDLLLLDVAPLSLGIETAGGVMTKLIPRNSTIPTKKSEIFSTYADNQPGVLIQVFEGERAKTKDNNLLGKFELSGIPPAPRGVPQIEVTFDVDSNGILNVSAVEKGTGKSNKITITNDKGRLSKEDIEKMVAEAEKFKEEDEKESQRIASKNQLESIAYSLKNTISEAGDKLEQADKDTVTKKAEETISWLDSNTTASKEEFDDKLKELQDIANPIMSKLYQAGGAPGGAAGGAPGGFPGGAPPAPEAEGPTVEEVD

B1: Sis1-WT (natural protein)
chain: MVKETKLYDLLGVSPSANEQELKKGYRKAALKYHPDKPTGDTEKFKEISEAFEILNDPQKREIYDQYGLEAARSGGPSFGPGGPGGAGGAGGFPGGAGGFSGGHAFSNEDAFNIFSQFFGGSSPFGGADDSGFSFSSYPSGGGAGMGGMPGGMGGMHGGMGGMPGGFRSASSSPTYPEEETVQVNLPVSLEDLFVGKKKSFKIGRKGPHGASEKTQIDIQLKPGWKAGTKITYKNQGDYNPQTGRRKTLQFVIQEKSHPNFKRDGDDLIYTLPLSFKESLLGFSKTIQTIDGRTLPLSRVQPVQPSQTSTYPGQGMPTPKNPSQRGNLIVKYKVDYPISLNDAQKRAIDENF
Q: Does B1 bind (Ssa1-WT)?
A: binds

Q: Does B1 bind [1]?
A: binds

B2: Sis1-[change] (natural protein)
chain: MVKETKLYDLLGVSPSANEQELKKGYRKAALKYHPDKPTGDTEKFKEISEAFAILNDPQKREIYDQYGLEAARSGGPSFGPGGPGGAGGAGGFPGGAGGFSGGHAFSNEDAFNIFSQFFGGSSPFGGADDSGFSFSSYPSGGGAGMGGMPGGMGGMHGGMGGMPGGFRSASSSPTYPEEETVQVNLPVSLEDLFVGKKKSFKIGRKGPHGASEKTQIDIQLKPGWKAGTKITYKNQGDYNPQTGRRKTLQFVIQEKSHPNFKRDGDDLIYTLPLSFKESLLGFSKTIQTIDGRTLPLSRVQPVQPSQTSTYPGQGMPTPKNPSQRGNLIVKYKVDYPISLNDAQKRAIDENF
Q: What does the source list for B2?
A: binding result (Ssa1-WT): binds; binding result [1]: binds

B3: Sis1-[change] (natural protein)
chain: MVKETKLYDLLGVSPSANEQELKKGYRKAALKYHPDKPTGDTEKFKEISEAFEILLDPQKREIYDQYGLEAARSGGPSFGPGGPGGAGGAGGFPGGAGGFSGGHAFSNEDAFNIFSQFFGGSSPFGGADDSGFSFSSYPSGGGAGMGGMPGGMGGMHGGMGGMPGGFRSASSSPTYPEEETVQVNLPVSLEDLFVGKKKSFKIGRKGPHGASEKTQIDIQLKPGWKAGTKITYKNQGDYNPQTGRRKTLQFVIQEKSHPNFKRDGDDLIYTLPLSFKESLLGFSKTIQTIDGRTLPLSRVQPVQPSQTSTYPGQGMPTPKNPSQRGNLIVKYKVDYPISLNDAQKRAIDENF
Q: Which results are given for B3?
A: binding result (Ssa1-WT): binds; binding result [1]: binds

B4: Sis1-[change] (natural protein)
chain: MVKETKLYDLLGVSPSANEQELKKGYRKAALKYHPDKPTGDTEKFKEIVEAFEILNDPQKREIYDQYGLEAARSGGPSFGPGGPGGAGGAGGFPGGAGGFSGGHAFSNEDAFNIFSQFFGGSSPFGGADDSGFSFSSYPSGGGAGMGGMPGGMGGMHGGMGGMPGGFRSASSSPTYPEEETVQVNLPVSLEDLFVGKKKSFKIGRKGPHGASEKTQIDIQLKPGWKAGTKITYKNQGDYNPQTGRRKTLQFVIQEKSHPNFKRDGDDLIYTLPLSFKESLLGFSKTIQTIDGRTLPLSRVQPVQPSQTSTYPGQGMPTPKNPSQRGNLIVKYKVDYPISLNDAQKRAIDENF
Q: Does B4 bind (Ssa1-WT)?
A: binds

Q: Does B4 bind [1]?
A: binds

B5: Sis1-[change] (natural protein)
chain: MVKETKLYDLLGVSPSANEQELKKGYRKAALKYHPDKPTGDTEKFKEISEAFKILNDPQKREIYDQYGLEAARSGGPSFGPGGPGGAGGAGGFPGGAGGFSGGHAFSNEDAFNIFSQFFGGSSPFGGADDSGFSFSSYPSGGGAGMGGMPGGMGGMHGGMGGMPGGFRSASSSPTYPEEETVQVNLPVSLEDLFVGKKKSFKIGRKGPHGASEKTQIDIQLKPGWKAGTKITYKNQGDYNPQTGRRKTLQFVIQEKSHPNFKRDGDDLIYTLPLSFKESLLGFSKTIQTIDGRTLPLSRVQPVQPSQTSTYPGQGMPTPKNPSQRGNLIVKYKVDYPISLNDAQKRAIDENF
Q: Does B5 bind (Ssa1-WT)?
A: binds

Q: Does B5 bind [1]?
A: binds
